# Reference: US20050060764A1, “Mouse model for bone metabolism” (priority 2003, published 2005)
# B1: parathyroid hormone (peptide, UniProt P01270 32-115, looked up)
# Parathyroid hormone: SVSEIQLMHNLGKHLNSMERVEWLRKKLQDVHNFVALGAPLAPRDAGSQRPRKKEDNVLVESHEKSLGEADKADVNVLTKAKSQ
# notes: parathyroid hormone infused to induce bone resorption in the mouse model
# Tested on: RANKL mRNA
# Assay: Short-term bone resorption model: RANKL mRNA expression in proximal tibia after PTH infusion (Table 6)
# Format: in vivo, mouse
# Conditions: mice infused with PTH 1 ug/100 g/6 hr
# Excerpt: Probes and primers to mouse RANKL were designed to hybridize to a mouse RANKL sequence, using published sequence information (GenBank accession number AF013170.1, incorporated herein as SEQ ID NO:ll). For mouse RANKL the PCR primers were: • forward primer: […] (SEQ ID NO:12) • reverse primer: […] (SEQ ID NO: 13) and • the PCR probe was: FAM-[…]-TAMRA (SEQ ID NO: 14) where FAM is the fluorescent reporter dye and TAMRA is the quencher dye. For mouse GAPDH the PCR primers were: • forward primer: […](SEQ ID NO:15) • reverse primer: […](SEQ ID NO:16) and the • PCR probe was: 5′ JOE-[…]-TAMRA 3′ (SEQ ID NO: 17) where JOE is the fluorescent reporter dye and TAMRA is the quencher dye.
# Parathyroidectomized rats are a well-established, short-term model of bone resorption and are useful in the investigation of antiresorptive agents. However, it is difficult to surgically remove only the parathyroid gland of rodents, and the inadvertent removal of the adjacent thyroid gland often has effects on thyroid hormone levels that introduce into the experiment an undesirable level of variability. Continuous infusion of parathyroid hormone (PTH) into intact, young (6-9 weeks old) mice reproduces the short-term bone resorption activity seen in parathyroidectomized rodents and is thus a useful, non-invasive model for the study of antiresorptive agents. The PTH infusion activates bone osteoclasts and causes them to degrade bone matrix, with a resulting rise in serum calcium. In accordance with the present invention, a short-term mouse model of bone resorption was developed and used to evaluate the effects of PTH infusion on serum calcium concentration and RANKL mRNA levels.
# Female, Swiss-Webster mice (5-8 weeks old) were placed on a low calcium diet and implanted with mini-pumps delivering PTH continuously. The pumps were calibrated to deliver 1 ug PTH per 100 g bodyweight per 6 hour time period (1 ug/100 g/6 hr). […] The data are expressed as percent increase relative to no PTH treatment.
molecule,measurement,setting,value
B1,RANKL mRNA % control,12 hours,242 % control
same,RANKL mRNA % control,18 hours,117 % control
same,RANKL mRNA % control,24 hours (4 ug/100 g),205 % control
